Molecular target: AcrB (from pET21a-acrBΔHis) (E. coli) (UniProt P31224)
Experiment: cryo-EM structure; AcrB/DARPin and AcrBZ/DARPin reconstituted in saposin A discs with E. coli lipids, with or without additional 5% cardiolipin; 20 mM Tris-Cl pH 7.5, 150 mM NaCl; 2 mM minocycline (AcrB) or 1 mM chloramphenicol (AcrBZ) added

**Q.** Which stoichiometry N does the source give for “AcrB (from pET21a-acrBΔHis) (from UniProt P31224) (natural protein)” here?
**A.** 3
